As a reminder, the koff is a measure of how fast the partners let go of each other. In general, kon refers to the second-order rate constant of association. Broadly, the EC50 is the midpoint of the concentration-response curve.

“And” between values parts separate entries of the source, which are not always exact repeats. Equal values may be shown once.

Assay [1] has as its target T1, recombinant monkey LAG-3 fused with mouse Fc (MrhLAG-3-mFc) (monkey).
T1 construct: also called monkey LAG-3 antigen
The assay can be described thus: Octet biolayer interferometry, 1:1 global fit. How it is done: (§1) After stabilization for 10 minutes in a buffer (#18-1042, Fortebio Inc.), immobilized antigen or antibody was washed out for 5 minutes with the buffer. The antibody or antigen desired for binding was prepared at different concentrations (0.94-60 nM) in a 96-well plate (#655209, Greiner Bio-One, USA) and subjected to the association reaction for 10 minutes followed by dissociation reaction for 10 minutes or 30 minutes.
A general note: BLI is a label-free optical method that tracks binding on a fibre tip over time.

Assay [2] deals with T2, recombinant mouse LAG-3 fused with mouse Fc (mLAG-Fc) (mouse, UniProt Q61790 24-442, limits assumed).
T2 construct: also called mouse LAG-3 antigen; not shown: mouse Fc (mFc) at the carboxy terminal
T2 sequence (looked up): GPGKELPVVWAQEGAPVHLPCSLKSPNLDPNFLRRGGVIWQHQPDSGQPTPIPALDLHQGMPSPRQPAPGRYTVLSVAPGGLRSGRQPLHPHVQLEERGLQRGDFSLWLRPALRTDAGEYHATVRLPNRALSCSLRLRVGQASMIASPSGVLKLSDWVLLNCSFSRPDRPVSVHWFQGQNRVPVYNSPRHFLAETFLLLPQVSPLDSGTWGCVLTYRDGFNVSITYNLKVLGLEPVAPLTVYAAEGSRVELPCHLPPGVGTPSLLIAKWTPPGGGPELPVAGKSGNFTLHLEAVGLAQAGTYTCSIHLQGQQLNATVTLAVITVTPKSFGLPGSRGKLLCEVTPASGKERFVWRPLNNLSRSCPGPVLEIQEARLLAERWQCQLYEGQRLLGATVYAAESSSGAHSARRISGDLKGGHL
Put plainly: Octet biolayer interferometry, 1:1 global fit. How it is done:
as §1

In assay [3] the target is T3, human LAG-3 overexpressed on cells (human, UniProt P18627 23-525).
T3 sequence (looked up): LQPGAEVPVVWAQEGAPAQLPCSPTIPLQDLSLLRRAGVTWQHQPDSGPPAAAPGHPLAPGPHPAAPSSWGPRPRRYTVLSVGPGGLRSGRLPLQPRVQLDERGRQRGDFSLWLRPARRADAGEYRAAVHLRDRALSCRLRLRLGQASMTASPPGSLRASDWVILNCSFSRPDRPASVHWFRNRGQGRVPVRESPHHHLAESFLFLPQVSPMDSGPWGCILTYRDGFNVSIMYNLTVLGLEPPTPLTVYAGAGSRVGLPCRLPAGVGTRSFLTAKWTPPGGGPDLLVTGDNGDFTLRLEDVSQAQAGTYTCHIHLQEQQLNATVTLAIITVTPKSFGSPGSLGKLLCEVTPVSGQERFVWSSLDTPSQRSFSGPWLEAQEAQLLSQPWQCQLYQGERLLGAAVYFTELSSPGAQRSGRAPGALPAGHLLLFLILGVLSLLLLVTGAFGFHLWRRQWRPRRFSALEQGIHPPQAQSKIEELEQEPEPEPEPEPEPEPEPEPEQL
Put plainly: cell-based or functional assay.

The target of assay [4] is T4, monkey (Rhesus monkey) LAG-3 overexpressed on HEK293E cells (Rhesus monkey, UniProt A0A5F8A874 23-533).
T4 construct: whole, on cells; also called HEK293E-MrhLAG3; MrhLAG3 (Rhesus Monkey)
T4 sequence: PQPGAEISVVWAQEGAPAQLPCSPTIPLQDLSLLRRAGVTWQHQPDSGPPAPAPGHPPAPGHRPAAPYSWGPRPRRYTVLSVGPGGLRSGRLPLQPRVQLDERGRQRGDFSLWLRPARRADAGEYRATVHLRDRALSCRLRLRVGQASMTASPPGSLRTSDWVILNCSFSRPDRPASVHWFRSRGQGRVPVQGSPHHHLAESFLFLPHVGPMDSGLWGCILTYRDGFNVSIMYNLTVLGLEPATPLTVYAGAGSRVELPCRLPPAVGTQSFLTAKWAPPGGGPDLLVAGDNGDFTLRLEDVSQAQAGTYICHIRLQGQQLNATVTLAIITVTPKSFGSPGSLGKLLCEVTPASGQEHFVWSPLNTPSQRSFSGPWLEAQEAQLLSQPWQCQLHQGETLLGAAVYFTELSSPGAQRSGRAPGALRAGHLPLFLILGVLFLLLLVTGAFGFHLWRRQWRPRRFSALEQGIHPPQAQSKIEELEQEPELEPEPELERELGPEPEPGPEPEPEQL
Put plainly: flow cytometry, HEK293E cells overexpressing monkey LAG-3. How it is done: (§2) After that, the cells were washed three times with PBS containing 2% FBS and then subjected to the reaction for 30 minutes at 4° C. with anti-human IgG antibody (#FI-3000, Vectorlabs) linked with FITC fluorescent. The cells were washed by the same washing process as above followed by suspension in 0.2 ml PBS containing 2% FBS. The cells were then analyzed by FACSCanto II flow cytometer.
(In general: In flow cytometry, cells or beads pass a laser one at a time.)

In assay [5] the target is T3, human LAG-3 overexpressed on cells. The assay can be described thus: cell-based or functional assay. This is another data set of the same source.
The target in assay [6] is T5, mouse LAG-3 overexpressed on HEK293E cells (mouse, UniProt Q61790 24-521).
T5 construct: whole, on cells; also called HEK293E-mLAG3; mLAG3 (Mouse)
T5 sequence (looked up): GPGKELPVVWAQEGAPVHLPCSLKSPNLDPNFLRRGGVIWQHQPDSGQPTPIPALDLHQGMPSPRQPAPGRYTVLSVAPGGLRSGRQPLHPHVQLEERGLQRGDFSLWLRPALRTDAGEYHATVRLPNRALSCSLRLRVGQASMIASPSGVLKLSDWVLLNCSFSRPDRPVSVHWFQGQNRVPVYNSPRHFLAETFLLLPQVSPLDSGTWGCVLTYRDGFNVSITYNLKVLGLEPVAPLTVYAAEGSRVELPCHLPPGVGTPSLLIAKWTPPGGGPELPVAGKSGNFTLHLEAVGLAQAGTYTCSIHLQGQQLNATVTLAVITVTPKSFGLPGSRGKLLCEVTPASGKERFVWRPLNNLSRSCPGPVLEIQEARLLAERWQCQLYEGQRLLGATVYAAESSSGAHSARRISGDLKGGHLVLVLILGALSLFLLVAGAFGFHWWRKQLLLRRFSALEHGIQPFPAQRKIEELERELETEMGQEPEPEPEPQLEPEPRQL
The assay can be described thus: flow cytometry, HEK293E cells overexpressing mouse LAG-3. How it is done:
as §2

B1: human anti-LAG-3 monoclonal antibody 1E09 (antibody, V domains shown)
VH: QVQLVQSGGDLVKPGGSLRLSCAASGFSFSDHYMNWIRQAPGKGLEWVAYIDTSATYIYYADSVKGRFTISRDNAKNSLYLQMNSLRAEDTAVYYCARDNWGSLDYWGQGALVTVSS
VL: DIQMTQSPSSLSPSVGDRVTITCQASQEISIYLNWYQQKPGKAPKLLIYDASNLETGVPSRFSGSGSGTDFTLTISSLQPEDFATYYCQQTYITPYTFGQGTKLDIK
notes: Tested as full IgG converted from scFv; also called LAG-3-1E09; Parent (1E09)
For B1, in assay [1], the koff was 6.08e-05 s⁻¹ and the kon amounted to 185000 M⁻¹ s⁻¹. Besides, in assay [2], the koff was found to be 0.000256 s⁻¹ and the kon is 430000 M⁻¹ s⁻¹. Also, the “EC50 (µg/ml), LAG3/MHC class II Blockade bioassay” value in assay [3] is 0.0688 µg/mL and 0.186 µg/mL. The molecule further had an EC50 in assay [4] of 0.246 µg/mL. In addition, in assay [5], the “EC50 value representing the capacity of recovering the inhibition” value was determined as 0.0578 µg/mL and the “activity against the control antibody (fold)” value is roughly 2.9 times. In assay [6], this molecule registered an EC50 of 1.5 µg/mL.

Values taken from patent US20210238283A1 (Y BIOLOGICS, published 2021).
